Reference: the DeepSol protein solubility set

Test: soluble on expression in E. coli; label from the status in PepcDB or PDB records

| Sequence | soluble on expression in E. coli |
| --- | --- |
| KTGFFVGPMAEFTLPIIGIGADVAALYSQTDLGADGEKTMKLKTFAVPVNLKWSFGLGSMLGAYIAAGPQFDFNIGNKTWTRELSLKKSTTSFNVGAGLKLIRHLQLGVNYNFALSKTGTYEYYTEGESGDGHHSVNIKNNTWQVSLAYLF | not soluble |
| VHEGHRKRLKERFLREGLDSFEQHQVLELLLFFSIPRKDTNELAHTLLNRYGSLSGVFEADPKDLATTPGIGENSAILLSLIPHLSRRYLNDKWRDKPELNSSAKAGQYAISLFAGRNYEVFYVICLDAQNRVNYAELVHEGTINEAPVYPRIIVETALRHKANSVILAHNHPGGTLNPSKADIEATKRIKAALEAISIKVVDHIIVCGGQYVSFAEKGLLSG | soluble |
| MGSDKIHHHHHHMSDKHYDALPKAHTTYANIVKSLLPIGNNGKISRDELPQATYFVDDLHIDQNNLNDYRKICGFADNGNVPITYFSVLSQALQMNMMVKEPFPFAMLGLVHVDNSVTQYRAIGEIETVAMSVMFDNLRDHAQGQQFDFVTTVKSADEIIWEGTSTYLSRSKKPATSKDKKSTPRPVTVKPSINKEGVHSIFEVPEDIGRRYAFVSGDFNLIHLHPLSARAFGFPKAIAHGMWSKAKCLAMMGELPDACTVEVSFKLPIFLPSEVELITDPLAQLSSTEDTCQFGLFSAKNDKPHLAGVIALRDENK | not soluble |
| MSIWKEAKDASGRIYYYNTLTKKSTWEKPKELISQEELLLRENGWKAAKTADGKVYYYNPTTRETSWTIPAFEKK | soluble |
| SADEEDSLSQFDISKEETDKLVSEVIRFILFKFHQNSGTPIKREDLTQIVTKNYRQRNLATHVINEAKKKLSNVFGYDLKELQRARSSSTGQSRLPQSQSSVDSKSYVLVSELPLEVFKKHVVDETTSPVTGFTFVVLAIVQLAGGKIPEGMLLLGLLRRSFLWFRCNVLCKVVEWKSKVHYRDLFKNLKL | soluble |
| MSLDGQEAAGILERARASVDPELRRAVDSLPGSMRRIALHHFGWEHADGTPAAGNAGKAIRPALVLAAVRALGGPQSSAVRAAAAVELIHNFTLLHDDVMDRDTTRRHRPTAWTVFGDADAILAGDALQALAHRLLAEDPHPASAAAAARLAACVIELCAGQHADTAMERRGPGEVTLDECLAMAEAKTGALLGCACALGALYAGAEEEDVEALDAFGREAGLAFQLIDDVIGIWGDPSRTGKPAGADLMARKKSLPVVAALAAGTPAAAELAELYAVPHQEGELERTVLAVERAGGRDWAQQQAADRMARAMHELSRAIPDPEAAGGLLALAEFVTRRSNEGHHHHHH | soluble |
| MHGTCLSGLYPVPFTHNSHDYPHFNIYISFGGPKYCITALNTYVTPLLHRILTTQFIYTYANITKKSPLKSPKHKNILFFNHNT | soluble |
| MGSDKIHHHHHHLTDLKDALRTEALDAGFAKMGVCSPNAVPETAARLKAFVDAGFHGQMGWMAERMHWRGDASALWPEAKSVVMLAEPYTPDSDPLDALARKDRATISVYAQGRDYHDLVKKRLKRVGRWLLAQCPGEQIKVFVDTAPVMEKPLAQAAGLGWQGKHTNLLARDLGNWVFLGAIFTTVELPIDEPEAEHCGSCTACLDICPTNAFPAPFQLDARKCISYLTIEHKGPVDLALRAKLGNRIYGCDDCLAVCPWNKFAQTARDIRYAPRDDLRSPLLADLAALDDAGFRARFSGSPIKRIGRDRFVRNILYAIGNSGQAKLVDAARPLTDDPDVAVADAARWAMERLL | not soluble |
| MGSDKIHHHHHHMNSMLNILEEISSRIKRPLITLLLFKYLRSVKRLECKNGQIIEIDDPSKYFISDLVYVCDVFKHFKSIKVRNGKVILDGIPFRPSELRYIGDVIEKLKLRVGSNFIAEFIYNGRIVKFRLAMTSKGVTGVFSLYEMFVREDYKVFDYKGKTVLDVCGFIGDSALFFALNDAKKVVSFEPQREAYELLVENVKLNEFDNIIVAINEAVGEKDSMVEFLIPDEFSLGASRYIRAGKKTSVKVRDIIRVMNEFKPDIIKLDCEGCEYGIIDKLLKTGRIYDVEGLVVEFHDTPEVKRWDYIRSLPFDVAIISDNPHWKVTVVSIRVMQNDAPRHI | not soluble |
| MGSDKIHHHHHHMEMDERFKDKWYLVKYKFFSNPFYKDFDVYDSSNNVVFTARMNALNPVTRDIVVYEVNKARSEILLISGKHFIRWPNNFEMTSIATREKIGTFRNGPAGWAVLDEYGRQVAILKRIEDPSGAIMYQIRMDSTSVCEYRFINIITPVIMIDFPDESIFSKKMGIGLALVLGYQSVAFNYTYQGW | not soluble |
